# Values of other authors, collected in PMC10766771.
# System: His154
# Assay: other (pH dependence of the redox potential, electrochemistry)
# Details: oxidized [2Fe-2S] cluster, isolated fragment
substance,measurement,value
"Rieske [2Fe-2S] iron-sulfur protein (cytochrome bc1-type), isolated soluble fragment (Thermus thermophilus)",pKa,7.8
